# Test results taken from US20080293632, “Use of natriuretic peptides for the treatment of stature disorders related to shox gene” (Gudrun RAPPOLD-HOERBRAND, published 2008).
# B1: BNP-1220 Wt (dsDNA)
# DNA 1: TAATCACCAGGCCACCTGCTAATGATAATTAGATCATGGGTGGTCAGATG
# DNA 2: CATCTGACCACCCATGATCTAATTATCATTAGCAGGTGGCCTGGTGATTA
# B2: BNP-600 Wt (dsDNA)
# DNA 1: TTCCTGGTCATACCCAGGCTTTTAATGAATTGCCACTGGGGAATCAGCAT
# DNA 2: ATGCTGATTCCCCAGTGGCAATTCATTAAAAGCCTGGGTATGACCAGGAA
# B3: BNP-1220c (dsDNA)
# DNA 1: GGGTCACCAGGCCACCTGCTCCCGATACCTAGATCATGGGTGGTCAGATG
# DNA 2: CATCTGACCACCCATGATCTAGGTATCGGGAGCAGGTGGCCTGGTGACCC
# B4: BNP-600b (dsDNA)
# DNA 1: GGGTTCCTGGTCATACCCAGGCTTTTGGGGAAGGGCCACTGGGGAATCAGCAT
# DNA 2: ATGCTGATTCCCCAGTGGCCCTTCCCCAAAAGCCTGGGTATGACCAGGAACCC
# B5: BNP-600 chromatin region (dsDNA)
# DNA 1: TAATGAATTG
# DNA 2: CAATTCATTA
# B6: BNP-1220 chromatin region (dsDNA)
# DNA 1: TAATGATAATTA
# DNA 2: TAATTATCATTA
# What was measured:
# [1] = biological target: T1, SHOX-GST (GST-SHOX-STM, SHOX aa 1-194) (Homo sapiens, UniProt O15266 O15266:1-194); assay: EMSA; conditions: tags: N-terminal GST (pGEX, E. coli); chain copies: monomer at low, homodimer at high concentration (stated); label: 32P; 5' overhangs filled in
# Method: (§1) FIG. 3A: 10 fmol of ³²P-radiolabelled double stranded oligonucleotide containing the putative distal binding site of SHOX was incubated with 0, 0.05, 0.5 and 3 μl purified SHOX-GST (250 nM). Monomeric binding of SHOX-GST could be observed with volumes of 0.05 and 0.5 μl, an increase in SHOX-GST concentration led to the formation of homeodimers.
# (§2) To create double stranded DNA for mobility shift assays two complementary oligonucleotides were annealed, generating 5′ overhangs on each side to permit radiolabelling using the Taq polymerase. The following oligonucleotides were used in the shift experiments (only the forward strand of the probes are given, putative binding site in bold, mutagenized nucleotides underlined): BNP-1220 Wt: […] [SEQ ID NO: 10]; BNP-1220a: […] [SEQ ID NO: 11]; BNP-1220b: […] [SEQ ID NO: 12]; BNP-1220c: […] [SEQ ID NO: 13]; BNP-600Wt: […] [SEQ ID NO: 14]; BNP-600a: […] CAT [SEQ ID NO: 15]; BNP-600b: […] [SEQ ID NO: 16].
# (§3) Gel Shift reactions contained 15 mM Hepes pH 7.5, 150 mM NaCl, 1 mM EDTA, 0.5 mM DTT, 0.05% NP-40, 7.5% glycerol, 0.25 mg/ml bovine serum albumin, 1.5 μg poly(dI-dC) and the appropriate ³²P-labelled probe. After addition of protein extract the samples were incubated for 10 min at room temperature. Separation was performed on a 5% nondenaturing polyacrylamide gel with 0.25×TBE at 12 V/cm at room temperature for 50 min. […]
# [2] = biological target: T1, SHOX-GST (GST-SHOX-STM, SHOX aa 1-194); assay: EMSA; conditions: tags: N-terminal GST (pGEX, E. coli); chain copies: monomer at low, homodimer at high concentration (stated); label: 32P; 5' overhangs filled in; remark: listed apart in the source
# Method: as §1, with “2A:” for “3A:”, “double-stranded” for “double stranded”, “proximal” for “distal”
# as §2, §3
# [3] = biological target: T1, SHOX-GST (GST-SHOX-STM, SHOX aa 1-194); assay: EMSA; five-nucleotide replacement, entire loss of binding; conditions: tags: N-terminal GST (pGEX, E. coli); chain copies: monomer at low, homodimer at high concentration (stated); label: 32P; 5' overhangs filled in
# Method: To test the sequence specificity of the SHOX DNA binding, SHOX-GST was incubated with oligonucleotides containing artificially introduced mutations in the putative SHOX binding site. Nucleotides differing from the wild-type sequence (Wt) are highlighted in green (BNP-1220a, BNP-1220b, BNP-1220c).
# as §2
# as §3, with “min. Gels were then dried and exposed overnight at −80° C.” for “min.”
# [4] = biological target: T1, SHOX-GST (GST-SHOX-STM, SHOX aa 1-194); assay: as above; conditions: tags: N-terminal GST (pGEX, E. coli); chain copies: monomer at low, homodimer at high concentration (stated); label: 32P; 5' overhangs filled in; remark: listed apart in the source
# Description: as §2
# Gel Shift reactions contained 15 mM Hepes pH 7.5, 150 mM NaCl, 1 mM EDTA, 0.5 mM DTT, 0.05% NP-40, 7.5% glycerol, 0.25 mg/ml bovine serum albumin, 1.5 μg poly(dI-dC) and the appropriate ³²P-labelled probe. After addition of protein extract the samples were incubated for 10 min at room temperature. Separation was performed on a 5% nondenaturing polyacrylamide gel with 0.25×TBE at 12 V/cm at room temperature for 50 min. Gels were then dried and exposed overnight at −80° C. […] In competition experiments, varying amounts of unlabelled competitor DNA were added to the samples preceding addition of protein extracts. In supershift experiments, 3 μg of anti-human SHOX-3-specific antibody were applied to the samples and preincubated for 15 min on ice prior separation for 2 h at 12 V/cm and 8° C.
# SHOX full length = SHOX full length (Homo sapiens, UniProt O15266 O15266:1-292); assay: ChIP with SHOX antibody, U2OS cells, quantitative PCR; conditions: tags: tetracycline-inducible in U2OS cells
# Method: Hereby U2OS cells, which express the SHOX gene for 48 hours, were treated with formaldehyde to allow fixation of the DNA binding proteins to the DNA. The cell chromatin was isolated and the fixed DNA precipitated together with SHOX through addition of a SHOX specific antibody. For controls, […] or water was used instead of the antibody. The precipitated DNA was analyzed by quantitative RT-PCR for an accumulation of SHOX binding sites in the putative regulatory region of the BNP gene.
# T1 sequence (O15266 1-194, one chain of several): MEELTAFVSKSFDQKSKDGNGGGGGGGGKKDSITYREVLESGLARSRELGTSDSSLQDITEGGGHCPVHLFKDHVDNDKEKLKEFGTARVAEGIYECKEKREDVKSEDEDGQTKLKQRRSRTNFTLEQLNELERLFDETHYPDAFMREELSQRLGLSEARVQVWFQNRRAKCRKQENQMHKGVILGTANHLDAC
# Sequence of SHOX full length (O15266 whole entry, one chain of several): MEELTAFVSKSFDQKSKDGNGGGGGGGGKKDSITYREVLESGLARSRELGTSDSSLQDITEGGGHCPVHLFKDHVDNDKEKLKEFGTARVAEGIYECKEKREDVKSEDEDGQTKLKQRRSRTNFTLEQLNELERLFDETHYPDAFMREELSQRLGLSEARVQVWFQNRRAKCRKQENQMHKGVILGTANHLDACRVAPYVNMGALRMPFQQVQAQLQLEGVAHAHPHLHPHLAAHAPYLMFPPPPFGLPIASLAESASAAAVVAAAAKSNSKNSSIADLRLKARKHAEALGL
binder,measurement,setting,value
B1,binding result,[1],binds
B2,binding result,[2],binds
B3,binding result,[3],no binding
B4,binding result,[4],no binding
B5,binding signal,SHOX full length,428 fold enrichment
B6,binding signal,SHOX full length,301 fold enrichment
